Measured values from patent US10889844B2, “Methods of degrading or hydrolyzing a polysaccharide” (Novozymes A/S, priority 2010, dated 2021).
“Also recorded” adds a separate entry of the source.

Key:
Format in all cases: biochemical
Cellic™ CTec2 = assay: Effect of ascorbic acid on glucose release from cellulose by Cellic CTec2 (FIG. 35); settings: 0.5 mM ascorbic acid, 24 hours
[1] = system: CBP21 (Serratia marcescens); settings: CBP21 alone on beta-chitin with reductant; 10 mM sodium dithionite anaerobic or 2.0 mM potassium cyanide
Sequence of CBP21 (Serratia marcescens) (P9WEM3 28-197): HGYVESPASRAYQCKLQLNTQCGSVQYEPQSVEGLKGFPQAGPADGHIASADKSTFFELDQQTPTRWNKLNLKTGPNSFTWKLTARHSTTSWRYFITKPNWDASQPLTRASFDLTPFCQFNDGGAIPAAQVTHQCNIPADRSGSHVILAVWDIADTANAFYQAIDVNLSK

CBP21 = CBP21 (Serratia marcescens, UniProt P9WEM3)
Sequence of CBP21 (P9WEM3 28-197): as above

[2] = Cleavage of AVICEL by GH61 proteins in the presence of ascorbic acid (HPAEC, FIG. 34); settings: 140 μg/ml GH61 protein, 10 mg/ml AVICEL, 2.4 mM ascorbic acid, pH 6.6, 24 hours
Excerpt: The two proteins were cloned and produced as described in Harris et al., 2010, supra. […] While the product pattern is similar to that obtained with CBM33s, it is not identical. The patterns typically obtained with CBM33s acting on cellulose in the presence of reductants (FIGS. 19, 22, 27, 30, and 31) show different peridiodicities (i.e., relative abundances of the various products, both oxidized and native oligosaccharides). This may indicate that TtGH61E acts on the substrate in a slightly different way, e.g., by attacking another face of the crystal. Clearly, however, the overall outcome of the reaction of TtGH61E in the presence of the reductant is similar to the outcome of reactions of CBM33s on cellulose in the presence of reductant.

[3] = Filter paper degradation by Cel7A with CelS2 (FIG. 21), cellobiose by HPLC
Protocol: These reactions were conducted in 50 mM sodium acetate pH 5.5, 1 mM MgCl2, at 50° C., 900 rpm (horizontal incubation). Only the cellobiose concentration was quantified as the amount of glucose was minor (less than 5% of the total sugar). Control reactions containing the cellulosic substrate suspended in the same buffer as used for the enzyme assays gave no detectable signal for either glucose or cellobiose.
(§1) The mobile phase consisted of 5 mM sulfuric acid and the flow rate used was 1.0 ml/min. Eluted glucose and cellobiose were monitored by recording refractive index. Quantification was obtained by running glucose and cellobiose standards.
(§2) Assays performed to evaluate the function of E7 and CelS2 were set up using a variety of cellulosic substrates (AVICEL®, filter paper and steam exploded wood chips from poplar), at either pH 5.5 (20 mM sodium acetate buffer), 6.5 (20 mM Bis-Tris buffer) or 8.0 (20 mM Tris buffer) in reaction mixtures containing 1.0 mM MgCl2.

[4] = Soluble oxidized products from other cellulosic variants by CelS2 (MALDI-TOF MS); settings: results not shown
Excerpt: Finally, other cellulosic variants (filter paper and steam exploded sawdust from poplar) were also probed as substrates for CelS2. […] This is most likely due to the high DP of the cellulose in these substrates; cleavages on the crystalline surfaces will not easily lead to release of soluble (=short) cellooligosaccharides when the overall DP is very high. AVICEL® is special in that it is a form of microcrystalline cellulose that has a very low DP (˜60-100; Wallis et al., 1992, Carbohydrate Polymers 17: 103-110 and Mormann and U, 2002, Carbohydrate Polymers 50: 349-353) compared to that of the other substrates tested.

[5] = Filter paper degradation by HjCel7A with CelS2 over time (FIG. 26); settings: 40 μg/ml CelS2, 5 μg/ml HjCel7A, pH 5.5, 50° C.
Protocol: By far the major products of these reactions are cellooligosaccharides released by the cellulases (whose activity is boosted by CelS2). In the case of HjCel7A, the main product is cellobiose and formation of this product is shown. RG, indicates the presence of a reductant, in this case reduced glutathione. […] The reactions were run at 50° C.

[6] = Time course of filter paper cellulose degradation by […] with CelS2 (FIG. 25)
Protocol: In reactions where no CelS2 was present, 40 μg/ml purified BSA was added in order to maintain an identical protein load. […] Data are mean+/−SD (N=3); error bars indicate SD.

[7] = Degradation of steam exploded saw dust from poplar by […] with CelS2 (FIG. 24); settings: 1.0 μM CelS2, CELLUCLAST, 1.0 mM reduced glutathione, pH 5.5, 20 hours
Protocol: as §2

[8] = Cellulase boosting properties of CelS2 at various pHs with monocomponent Cel7A; settings: CelS2 with Cel7A; data not shown
Excerpt: When probing the cellulose boosting properties of CelS2 at various pHs using monocomponent Cel7A as the cellulose hydrolytic component, pH 5.5 came out as the optimal pH for activity. […] The most obvious reason for the decrease in cellulose hydrolysis at increasing pH is the pH stability and efficiency of Cel7A. […] CelS2 is a bacterial enzyme that originates from Streptomyces species that are known to grow optimally on cellulosic substrates in approximately neutral pH conditions (Kontro et al., 2005, Letters in Applied Microbiology 41: 32-38.).

[9] = Soluble products released from AVICEL by CBM33 proteins (MALDI-TOF MS, HPAEC)
Protocol: The main peaks are annotated with molecular weight and degree of polymerization (DP).
The DP of the oxidized cellooligosaccharides is indicated by n, where n=3 (the shortest labelled oxidized cellooligosaccharide has a DP of three (=n)). […] Peak annotation was performed by comparing the chromatogram with the chromatogram obtained for a chemically prepared mixture of oxidized cellooligosaccharides with lengths varying from DP1 to DP10.
The main peaks are annotated with molecular weight and degree of polymerization (DP). All annotated peaks are Na adducts of native cellooligosaccharides, oxidized cellooligosaccharides (denoted “ox”) or the sodium salts of oxidized cellooligosaccharides.
Products were analyzed after 20 hours of incubation in 20 mM ammonium acetate buffer pH 5.0, 1 mM MgCl2 at 50° C. and 900 rpm (vertical agitation).
Separation of native and oxidized cellooligosaccharides was achieved using a Dionex Bio-LC equipped with a CarboPack PA1, a column temperature of 30° C. and a flow of 0.25 ml/min, with starting conditions, i.e., 0.1 M NaOH. A stepwise linear gradient with increasing amounts of sodium acetate was applied, going from 0.1 M NaOH and 0.1 M sodium acetate in 10 minutes, then to 0.1 M NaOH and 0.3 M sodium acetate for 25 minutes then increasing to 0.1 M NaOH and 1.0 M sodium acetate at 30 minutes which was kept for 10 minutes. Column reconditioning was achieved by a one minute gradient to initial conditions and subsequent running at initial conditions for 14 minutes. Eluted oligosaccharides were monitored by PAD detection. Chromatograms were recorded and analysed using Chromeleon 7.0 Peak identification was achieved by a procedure including the following steps: oxidized cellooligosaccharides were separated using a Dionex Ultimate 3000 UHPLC system carrying a Hypercarb 150×2.1 mm column (Thermo Scientific) running a gradient of water/0.1% TFA and acetonitrile/0.1% TFA (from 20 to 80% acetonitrile) according to the method developed by Westphal et al., 2010, Journal of Chromatography A 1217: 689-695. Eluted peaks were manually fractioned, freeze-dried, re-dissolved in MilliQ water and identified using MALDI-TOF MS. Pure oxidized cellooligosaccharides with known identity were then analyzed using the HPEAC method described above in order to establish the identity of the oxidized cellooligosaccharides generated by CelS2 and E7.

[10] = Filter paper degradation by […] with CelS2 or E7 (FIG. 20), sugars by HPLC
Protocol: Reactions were run in 50 mM Bis-tris/HCl pH 6.5, 1 mM MgCl2, at 50° C. and 900 rpm (horizontal agitation). Control reactions containing the cellulosic substrate suspended in the same buffer as used for the enzyme assays gave no detectable signal for either glucose or cellobiose.
as §1, §2

[11] = EfCBM33 boost of alpha-chitin degradation by chitinase EF0361; settings: 2.0 mg/ml alpha-chitin, 0.3 μM EF0361, 0.3 μM EfCBM33, 1.0 mM reduced glutathione
Protocol: (§3) For use in chitin degradation experiments, eight crystals were harvested from a 2 μL drop using a nylon loop and transferred to a 4 μL drop containing the crystallization liquor from the buffer reservoir. The crystals were mixed around in order to “rinse off” potential contaminants. After the first rinse, the crystals were transferred to a new 4 μL drop containing the crystallization liquor for a second rinsing cycle. Finally, all crystals were transferred to and dissolved in a 4 μL drop containing 20 mM Tris-HCl, pH 8.0. The resulting solution was diluted by adding it to a test tube containing 46 μL 20 mM Tris-HCl, pH 8.0. […] Soluble products in the supernatant of the reaction were analyzed by MALDI-TOF, using the same methods as those used for testing the activity of CBP21. Further, the ability of EfCBM33 to boost degradation of alpha-chitin was probed by conducting an experiment where 2.0 mg/ml alpha-chitin (shrimp shells) was incubated with 0.3 μM of the chitinase from Entreococcus feacalis (protein name (EF0361)) in the presence or absence of 0.3 μM EfCBM33 and 1.0 mM reductant (R: reduced glutathione) incubated at 37° C. with agitation at 900 rpm.

[12] = EfCBM33 (dissolved crystals) on beta-chitin, MALDI-TOF MS; settings: 2.0 mg/ml beta-chitin
Protocol: as §3

With `O=C1O[C@H]([C@@H](O)CO)C(O)=C1O` [ascorbic acid] as the molecule, how does the “increase of the release of glucose” value (Cellic™ CTec2; AVICEL®) read?
Its value is “about 30%”.

And the “increase of the release of glucose” value (Cellic™ CTec2; Filter Paper)?
Its value is “about 30%”.

Which “effect on CBP21 generated oxidized products” value [1] does the source give for `O=S([O-])S(=O)[O-].[Na+].[Na+]` [sodium dithionite, Sodium dithionite] here?
Its value is “no detectable amounts of CBP21 generated products”.

And the “effect on the potentiating effect of CBP21 on ChiC” value (CBP21)?
The value was “abolished”.

B1: TaGH61A: GH61 protein (SEQ ID NO: 2), GH61A from T. aurantiacus (protein)
chain: MSFSKIIATAGVLASASLVAGHGFVQNIVIDGKKYYGGYLVNQYPYMSNPPEVIAWSTTATDLGFVDGTGYQTPDIICHRGAKPGALTAPVSPGGTVELQWTPWPDSHHGPVINYLAPCNGDCSTVDKTQLEFFKIAESGLINDDNPPGIWASDNLIAANNSWTVTIPTTIAPGNYVLRHEIIALHSAQNQDGAQNYPQCINLQVTGGGSDNPAGTLGTALYHDTDPGILINIYQKLSSYIIPGPPLYTG
modifications: T. aurantiacus
For B1, which “cleavage of cellulose, oxidized products” value [2] is on record?
Its value is “much less active than TtGH61E”.

B2: TtGH61E: GH61 protein from Thielavia terrestris (SEQ ID NO: 1) (protein)
chain: MLANGAIVFLAAALGVSGHYTWPRVNDGADWQQVRKADNWQDNGYVGDVTSPQIRCFQATPSPAPSVLNTTAGSTVTYWANPDVYHPGPVQFYMARVPDGEDINSWNGDGAVWFKVYEDHPTFGAQLTWPSTGKSSFAVPIPPCIKSGYYLLRAEQIGLHVAQSVGGAQFYISCAQLSVTGGGSTEPPNKVAFPGAYSATDPGILINIYYPVPTSYQNPGPAVFSCMLANGAIVFLAAALGVSGHYTWPRVNDGADWQQVRKADNWQDNGYVGDVTSPQIRCFQATPSPAPSVLNTTAGSTVTYWANPDVYHPGPVQFYMARVPDGEDINSWNGDGAVWFKVYEDHPTFGAQLTWPSTGKSSFAVPIPPCIKSGYYLLRAEQIGLHVAQSVGGAQFYISCAQLSVTGGGSTEPPNKVAFPGAYSATDPGILINIYYPVPTSYQNPGPAVFSC
modifications: T. terrestris
For B2, which “cleavage of cellulose, oxidized products” value [2] is on record?
The value was “cuts cellulose producing oxidized and native celluoligosaccharides”.

B3: CelS2: multidomain CBM33 with C-terminal CBM2 from Streptomyces coelicolor A3(2) (SEQ ID NO: 7) (protein)
chain: MVRRTRLLTLAAVLATLLGSLGVTLLLGQGRAEAHGVAMMPGSRTYLCQLDAKTGTGALDPTNPACQAALDQSGATALYNWFAVLDSNAGGRGAGYVPDGTLCSAGDRSPYDFSAYNAARSDWPRTHLTSGATIPVEYSNWAAHPGDFRVYLTKPGWSPTSELGWDDLELIQTVTNPPQQGSPGTDGGHYYWDLALPSGRSGDALIFMQWVRSDSQENFFSCSDVVFDGGNGEVTGIRGSGSTPDPDPTPTPTDPTTPPTHTGSCMAVYSVENSWSGGFQGSVEVMNHGTEPLNGWAVQWQPGGGTTLGGVWNGSLTSGSDGTVTVRNVDHNRVVPPDGSVTFGFTATSTGNDFPVDSIGCVAP
modifications: Streptomyces coelicolor
For B3, which “improvement of Cel7A activity (cellobiose yield)” value (“improvement of Cel7A activity” below) ([3]; absence of external electron donor, 18 hours) is on record?
The value was 5.5 fold.

What about the “improvement of Cel7A activity” value ([3]; absence of external electron donor, 40 hours) of the same molecule?
Its value is 7.3 fold.

And the “improvement of Cel7A activity” value ([3]; presence of external electron donor, 18 hours)?
Its value is 6.7 fold.

And the “improvement of Cel7A activity” value ([3]; presence of external electron donor, 40 hours)?
The value was 9.8 fold.

And the soluble oxidized cellooligosaccharides [4]?
The soluble oxidized cellooligosaccharides was “Soluble oxidized cellooligosaccharides were not observed”.

What about the “effect on Cel7A activity (cellobiose formation)” value [5] of the same molecule?
Its value is “boosts the activity of the cellulase, Cel7A; also recorded: prolongs the activity of Cel7A”.

What about the “effect on CELLUCLAST (CC) production of soluble glucose over time” value ([6]; 10 mg/ml filter paper, 0.8 μg/ml CC, pH 5.5) of the same molecule?
The value was “production of soluble glucose continues”.

And the “Glc or Glc2 released without cellulase” value ([6]; reactions with only CelS2)?
Its value is “did not yield detectable amounts of Glc or Glc2”.

And the “cellulase boosting effect (cellobiose release)” value [7]?
The value was about 2 fold.

And the “activity at pH 6.5” value [8]?
Its value is “Less activity”.

What about the “activity at pH 8.0” value [8] of the same molecule?
The value was “no activity could be detected”.

What about the “optimal pH for activity” value [8] of the same molecule?
The value was 5.5.

And the “CelS2 activity at pH 8.0” value ([9]; AVICEL, FIG. 19)?
Its value is “active”.

And the “release of soluble native/oxidized cellooligosaccharides from AVICEL” value ([9]; with external electron donor (ascorbic acid or reduced glutathione))?
The value was “soluble oligomeric products were observed”.

And the “increase of glucose yield versus CELLUCLAST only” value ([10]; no external electron donor, 24 hours)?
The value was about 3.0 fold.

And the “increase of glucose yield versus CELLUCLAST only” value ([10]; no external electron donor, 120 hours)?
The value was about 9 fold.

What about the “increase of glucose yield versus CELLUCLAST only” value ([10]; with external electron donor (1 mM reduced glutathione), 24 hours) of the same molecule?
Its value is about 5 fold.

And the “increase of glucose yield versus CELLUCLAST only” value ([10]; with external electron donor (1 mM reduced glutathione), 120 hours)?
The value was about 11 fold.

B4: EfCBM33: family 33 CBM from Enterococcus faecalis (Uniprot ID:Q838S1; SEQ ID NO: 5) (protein, listed as Enterococcus faecalis)
chain: MKKSLLTIVLAFSFVLGGAALAPTVSEAHGYVASPGSRAFFGSSAGGNLNTNVGRAQWEPQSIEAPKNTFITGKLASAGVSGFEPLDEQTATRWHKTNITTGPLDITWNLTAQHRTASWDYYITKNGWNPNQPLDIKNFDKIASIDGKQEVPNKVVKQTINIPTDRKGYHVIYAVWGIGDTVNAFYQAIDVNIQ
Which results are given for B4?
boost of chitinase activity on alpha-chitin [11]: A boost of the chitinase activity is clearly observed; oxidohydrolytic activity on beta-chitin (soluble products) [12]: clearly showing the formation of oxidized products; also recorded: the product spectrum is dominated by even-numbered oxidized chitooligosaccharides
